# Laboratory results taken from article PMC3926959.
# T1: Ndc1-mTurquoise2 (S. cerevisiae), P32500
# T1 chain: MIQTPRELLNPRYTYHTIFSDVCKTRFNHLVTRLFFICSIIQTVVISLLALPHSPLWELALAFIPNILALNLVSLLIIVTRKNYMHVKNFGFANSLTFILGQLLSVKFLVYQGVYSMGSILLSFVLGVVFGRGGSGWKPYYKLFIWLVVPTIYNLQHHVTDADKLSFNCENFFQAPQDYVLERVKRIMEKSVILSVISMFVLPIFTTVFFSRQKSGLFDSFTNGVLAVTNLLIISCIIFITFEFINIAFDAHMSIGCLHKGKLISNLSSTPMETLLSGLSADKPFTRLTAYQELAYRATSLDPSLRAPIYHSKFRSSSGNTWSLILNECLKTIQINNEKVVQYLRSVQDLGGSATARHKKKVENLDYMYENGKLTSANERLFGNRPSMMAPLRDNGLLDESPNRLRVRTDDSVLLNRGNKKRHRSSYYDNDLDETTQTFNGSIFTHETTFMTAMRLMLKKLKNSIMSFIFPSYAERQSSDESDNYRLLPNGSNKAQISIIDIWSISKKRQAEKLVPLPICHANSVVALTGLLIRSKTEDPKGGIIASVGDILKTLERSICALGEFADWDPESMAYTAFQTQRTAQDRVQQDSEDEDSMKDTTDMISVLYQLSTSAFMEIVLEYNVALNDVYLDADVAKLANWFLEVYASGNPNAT
# B1: Mps3-YFP, P47069 1-682 (natural protein)
# chain: MNNSNEHRREEAGAANEQMPYNKAVKSAYADVLKDKMNREQEISLRAIKKGIYTDGGETDNYDMDKENDSAYEMFKKNLDFPLDQHNDDDDDDPYIEDNGQETDGYSDEDYTDEADKSFIEDSDSDSYDLESNSDFEENLESSGEAKKLKWRTYIFYGGLFFVFYFFGSFLMTTVKNNDLESHSSGATSSPGKSFSNLQKQVNHLYSELSKRDEKHSSELDKTVKIIVSQFEKNIKRLLPSNLVNFENDINSLTKQVETISTSMSELQRRNHKFTVENVTQWQDQLVKQLDTHLPQEIPVVINNSSSLLIIPELHNYLSALISDVIESPGIGTAGSAESRWEYDLNRYVKEILSNELQYIDKDYFIQEMNRRLQSNKQEIWEEITNRLETQQQQQQQQVQQDYSNVPQQYSSILMKRLIHQIYNSNQHQWEDDLDFATYVQGTKLLNHLTSPTWRQGSGVQPIELLTDSKQSSSTYWQCENEPGCSWAIRFKTPLYLTKISYMHGRFTNNLHIMNSAPRLISLYVKLSQTKEIKALQTLANQYGFGQHHKRDRNYIKIAKFEYRLTDSRIRQQMYLPPWFIQLKPLVRSIVFQVDENYGNKKFISLRKFIINGVTPQDLQIIENNEFPVLLGDTPEYGVTQNTDEGKRKVLLSKPPYASSSTSTKFHPASNVPSFGQDELDQ
# Biological target: T1, Ndc1-mTurquoise2 (S. cerevisiae), P32500
# Experiment: line-scanning fluorescence cross-correlation spectroscopy
# Settings: remark: other sources report otherwise
binder,measurement,value
B1,percent of Ndc1-mTurquoise2 in a complex (FCCS),2%
